Experimental data as given in FireProtDB.
Values joined by “and” are separate entries in the source; they are usually repeats but may differ in a detail not shown here. Identical values can stand only once.

Settings: for Tm / change of melting temperature, mutant - wild type (higher = more stable) / unfolding enthalpy (calorimetric) / heat capacity change of unfolding: Thermal
[1] = Bos taurus, pH 8, DSC, HEPES 50mM, NaCl 150mM, structure 1IHG
[2] = Homo sapiens, DSC, 1 X - PBS, Mg2+ 0.5 mM, structure 1AJE
[3] = Homo sapiens, pH 7.4, 25 °C, GdnHCl, CD, PBS, structure 1TIT
[4] = Homo sapiens, pH 7.6, CD, Sodium phosphate 20 mM, NaCl 0.1 M, reversible: no, structure 1OWA
[5] = Salmo salar, pH 7.1, CD, HEPES 10 mM, NaCl MgCl2 30 mM 3mM
[6] = Bos taurus, pH 8, 30 °C, GdnHCl, CD, borate 10 mM, structure 1BP2
[7] = Homo sapiens, pH 7.5, Differential Scanning Fluorimetry, PBS, transition: 2, structure 1DXX
[8] = Bos taurus, pH 4.4, DSC, Sodium acetate 25 mM, NaCl 100 mM, reversible: yes
[9] = Bos taurus, pH 4.8, DSC, Sodium acetate 25 mM, NaCl 100 mM, reversible: yes
[10] = Bos taurus, pH 5.3, DSC, Sodium acetate 25 mM, NaCl 100 mM, reversible: yes
[11] = Bos taurus, pH 7.55, DSC, Tris 0.09 M, reversible: yes
[12] = Bos taurus, pH 8, DSC, Sodium acetate 25 mM, NaCl 100 mM, reversible: yes

Fibronectin D1544K, P02751, sequence (P02751 whole entry D1544K): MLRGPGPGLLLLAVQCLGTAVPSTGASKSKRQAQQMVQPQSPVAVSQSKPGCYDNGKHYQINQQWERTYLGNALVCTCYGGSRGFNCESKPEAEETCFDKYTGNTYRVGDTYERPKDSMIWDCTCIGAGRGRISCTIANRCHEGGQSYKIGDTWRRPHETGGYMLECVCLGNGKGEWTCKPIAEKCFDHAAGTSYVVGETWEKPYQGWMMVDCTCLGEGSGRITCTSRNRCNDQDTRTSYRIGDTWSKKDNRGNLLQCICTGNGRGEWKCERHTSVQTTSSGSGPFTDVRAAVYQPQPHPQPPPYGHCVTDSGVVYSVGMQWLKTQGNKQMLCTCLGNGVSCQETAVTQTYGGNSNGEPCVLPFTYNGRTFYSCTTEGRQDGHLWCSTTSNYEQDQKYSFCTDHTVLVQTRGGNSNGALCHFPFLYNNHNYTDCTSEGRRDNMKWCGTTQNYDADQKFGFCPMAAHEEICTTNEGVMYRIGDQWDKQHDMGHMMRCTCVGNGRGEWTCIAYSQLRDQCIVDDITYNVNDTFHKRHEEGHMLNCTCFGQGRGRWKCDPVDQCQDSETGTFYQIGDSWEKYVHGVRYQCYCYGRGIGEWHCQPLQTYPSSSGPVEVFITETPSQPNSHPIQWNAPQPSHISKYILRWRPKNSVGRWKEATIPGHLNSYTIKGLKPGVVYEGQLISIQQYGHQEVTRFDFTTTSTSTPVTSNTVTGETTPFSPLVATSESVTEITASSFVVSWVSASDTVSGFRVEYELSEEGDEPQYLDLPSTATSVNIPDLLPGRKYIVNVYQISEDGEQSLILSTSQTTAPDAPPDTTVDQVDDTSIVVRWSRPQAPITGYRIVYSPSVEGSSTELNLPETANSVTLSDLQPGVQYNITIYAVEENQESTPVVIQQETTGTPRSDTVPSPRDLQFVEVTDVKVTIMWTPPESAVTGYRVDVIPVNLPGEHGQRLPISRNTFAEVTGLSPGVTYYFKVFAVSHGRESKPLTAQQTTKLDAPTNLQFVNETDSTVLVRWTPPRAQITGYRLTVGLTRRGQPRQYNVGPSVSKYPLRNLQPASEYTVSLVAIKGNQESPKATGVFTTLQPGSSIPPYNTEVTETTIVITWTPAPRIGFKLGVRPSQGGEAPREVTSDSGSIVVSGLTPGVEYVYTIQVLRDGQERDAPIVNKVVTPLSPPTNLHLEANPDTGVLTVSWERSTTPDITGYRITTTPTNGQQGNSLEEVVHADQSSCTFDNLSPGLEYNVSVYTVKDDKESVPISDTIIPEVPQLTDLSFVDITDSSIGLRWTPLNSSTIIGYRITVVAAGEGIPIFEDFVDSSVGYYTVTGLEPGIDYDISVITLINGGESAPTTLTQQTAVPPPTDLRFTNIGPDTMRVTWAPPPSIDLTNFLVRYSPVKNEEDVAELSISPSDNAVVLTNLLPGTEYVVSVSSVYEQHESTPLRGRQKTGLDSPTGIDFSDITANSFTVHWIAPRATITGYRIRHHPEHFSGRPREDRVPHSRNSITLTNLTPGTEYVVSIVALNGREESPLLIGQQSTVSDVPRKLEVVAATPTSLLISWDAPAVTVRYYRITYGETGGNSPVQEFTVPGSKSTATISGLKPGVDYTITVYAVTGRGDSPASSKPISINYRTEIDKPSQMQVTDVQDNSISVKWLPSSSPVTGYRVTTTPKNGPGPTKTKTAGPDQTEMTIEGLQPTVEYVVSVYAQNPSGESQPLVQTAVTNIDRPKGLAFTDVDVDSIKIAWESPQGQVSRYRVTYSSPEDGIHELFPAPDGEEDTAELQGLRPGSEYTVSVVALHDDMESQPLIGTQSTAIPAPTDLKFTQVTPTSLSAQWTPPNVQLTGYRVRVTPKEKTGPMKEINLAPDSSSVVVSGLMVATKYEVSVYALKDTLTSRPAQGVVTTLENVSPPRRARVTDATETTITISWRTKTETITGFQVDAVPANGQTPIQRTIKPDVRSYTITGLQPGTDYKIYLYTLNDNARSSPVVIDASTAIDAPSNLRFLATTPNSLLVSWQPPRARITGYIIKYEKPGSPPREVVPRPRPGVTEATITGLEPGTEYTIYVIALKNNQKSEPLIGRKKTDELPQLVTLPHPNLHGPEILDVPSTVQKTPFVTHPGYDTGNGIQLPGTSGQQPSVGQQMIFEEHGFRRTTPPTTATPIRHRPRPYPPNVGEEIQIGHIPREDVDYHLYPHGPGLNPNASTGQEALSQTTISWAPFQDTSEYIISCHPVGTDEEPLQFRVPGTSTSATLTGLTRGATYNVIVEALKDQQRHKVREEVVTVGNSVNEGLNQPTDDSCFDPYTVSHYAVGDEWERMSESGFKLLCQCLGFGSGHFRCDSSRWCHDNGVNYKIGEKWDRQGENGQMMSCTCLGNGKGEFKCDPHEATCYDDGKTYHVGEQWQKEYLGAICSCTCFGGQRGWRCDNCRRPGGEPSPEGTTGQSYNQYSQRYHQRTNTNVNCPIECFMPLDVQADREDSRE
Peptidyl-prolyl cis-trans isomerase D K227A, P26882, sequence (P26882 whole entry K227A): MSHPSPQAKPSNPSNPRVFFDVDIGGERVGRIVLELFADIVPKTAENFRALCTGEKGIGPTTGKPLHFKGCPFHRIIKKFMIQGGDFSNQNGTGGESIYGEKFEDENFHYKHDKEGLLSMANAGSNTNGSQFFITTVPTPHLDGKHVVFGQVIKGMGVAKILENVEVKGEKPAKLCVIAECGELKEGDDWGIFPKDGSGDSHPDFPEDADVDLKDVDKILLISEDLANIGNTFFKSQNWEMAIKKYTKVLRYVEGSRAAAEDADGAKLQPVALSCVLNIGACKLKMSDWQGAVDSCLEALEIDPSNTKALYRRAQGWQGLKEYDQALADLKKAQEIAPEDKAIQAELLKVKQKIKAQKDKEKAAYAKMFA
Carbonic anhydrase 2 wild type, P00921, sequence (P00921 whole entry): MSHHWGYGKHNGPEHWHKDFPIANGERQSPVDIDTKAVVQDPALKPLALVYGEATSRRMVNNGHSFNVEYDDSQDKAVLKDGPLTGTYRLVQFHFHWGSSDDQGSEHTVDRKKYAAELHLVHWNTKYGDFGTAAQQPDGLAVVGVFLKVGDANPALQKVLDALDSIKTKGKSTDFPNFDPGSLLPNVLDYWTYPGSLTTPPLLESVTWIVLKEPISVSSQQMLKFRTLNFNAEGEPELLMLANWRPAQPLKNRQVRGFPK
Peptidyl-prolyl cis-trans isomerase D K308A, P26882, sequence (P26882 whole entry K308A): as the sequence (P26882 whole entry K227A) above, with A227K, K308A counted along it
Endo-1,4-beta-xylanase wild type, Q59962, sequence (Q59962 entry or part of it): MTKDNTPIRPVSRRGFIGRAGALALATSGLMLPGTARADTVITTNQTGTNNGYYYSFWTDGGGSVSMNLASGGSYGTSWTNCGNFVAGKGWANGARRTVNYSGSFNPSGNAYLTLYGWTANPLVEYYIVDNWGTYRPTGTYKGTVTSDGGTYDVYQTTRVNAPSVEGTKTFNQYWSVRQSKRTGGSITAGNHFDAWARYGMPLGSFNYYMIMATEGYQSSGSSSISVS
Tropomyosin alpha-1 chain G24A, Q91472, sequence (Q91472 entry or part of it G24A | G24A): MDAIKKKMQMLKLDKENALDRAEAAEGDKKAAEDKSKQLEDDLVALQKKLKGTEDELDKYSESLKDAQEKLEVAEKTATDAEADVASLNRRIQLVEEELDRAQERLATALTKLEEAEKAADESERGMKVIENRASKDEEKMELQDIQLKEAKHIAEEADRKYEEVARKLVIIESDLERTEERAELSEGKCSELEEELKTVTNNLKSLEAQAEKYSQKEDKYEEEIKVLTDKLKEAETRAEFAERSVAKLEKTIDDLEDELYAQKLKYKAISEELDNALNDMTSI
Cell division control protein 42 homolog T35A, P60953, sequence (P60953 whole entry T35A): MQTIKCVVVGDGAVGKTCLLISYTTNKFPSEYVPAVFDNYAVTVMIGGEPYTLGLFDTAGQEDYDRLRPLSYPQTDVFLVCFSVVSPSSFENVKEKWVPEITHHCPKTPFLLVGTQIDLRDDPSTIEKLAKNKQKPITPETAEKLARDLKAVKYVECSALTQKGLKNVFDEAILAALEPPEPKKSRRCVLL
S-adenosylmethionine synthase isoform type-1 wild type, P13444, sequence (P13444 whole entry, canonical isoform): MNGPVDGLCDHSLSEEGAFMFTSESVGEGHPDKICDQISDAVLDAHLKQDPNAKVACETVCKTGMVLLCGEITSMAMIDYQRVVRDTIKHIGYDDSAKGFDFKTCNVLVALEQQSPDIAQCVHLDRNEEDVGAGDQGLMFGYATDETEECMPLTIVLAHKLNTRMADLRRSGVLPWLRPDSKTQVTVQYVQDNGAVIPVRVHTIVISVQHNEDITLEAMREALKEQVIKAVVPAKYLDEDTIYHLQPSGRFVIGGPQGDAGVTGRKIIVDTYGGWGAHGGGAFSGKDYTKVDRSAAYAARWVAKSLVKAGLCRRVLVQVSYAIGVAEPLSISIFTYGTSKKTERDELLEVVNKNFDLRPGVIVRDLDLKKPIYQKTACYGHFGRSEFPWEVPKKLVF
Creatine kinase M-type wild type, P00563, sequence (P00563 whole entry): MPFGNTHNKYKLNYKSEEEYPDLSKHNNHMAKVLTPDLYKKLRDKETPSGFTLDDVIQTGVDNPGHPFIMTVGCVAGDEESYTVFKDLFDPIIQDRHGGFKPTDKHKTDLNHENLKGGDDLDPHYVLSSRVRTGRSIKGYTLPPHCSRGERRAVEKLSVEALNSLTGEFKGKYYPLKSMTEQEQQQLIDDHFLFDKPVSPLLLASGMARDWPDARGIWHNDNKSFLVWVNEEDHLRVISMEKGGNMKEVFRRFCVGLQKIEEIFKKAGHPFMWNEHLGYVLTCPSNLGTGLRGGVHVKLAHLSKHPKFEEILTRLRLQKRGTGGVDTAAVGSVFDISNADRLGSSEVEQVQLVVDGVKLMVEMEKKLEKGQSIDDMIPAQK

Substance: Peptidyl-prolyl cis-trans isomerase D K308A, P26882
- Tm [1]: 45 °C
- change of melting temperature, mutant - wild type (higher = more stable) [1]: -0.07 °C
- unfolding enthalpy (calorimetric) [1]: 155 kcal/mol

Substance: Creatine kinase B-type wild type, P00567
- unfolding free energy (Oryctolagus cuniculus, pH 7.4, 22 °C, GdnHCl, CD, Sodium phosphate 100 mM): 6.94 kcal/mol
- Tm (Oryctolagus cuniculus, pH 8, DSC, HEPES-NaOH 30 mM, reversible: no): 55.9 °C

Substance: S-adenosylmethionine synthase isoform type-1 wild type, P13444
- unfolding free energy (Rattus norvegicus, pH 8, 25 °C, Urea, Fluorescence, Tris-HCl 50 mM, MgCl2 4 mM, transition: 3, reversible: yes): 6.12 kcal/mol and 4.41 kcal/mol

Substance: Cell division control protein 42 homolog T35A, P60953
- Tm [2]: 64.2 °C
- change of melting temperature, mutant - wild type (higher = more stable) [2]: 0.7 °C

Substance: Titin V12689A, Q8WZ42
- ddG of mutation (higher = less stable) [3]: 2.37 kcal/mol

Substance: Fibronectin P1624A, P02751
- ddG of mutation (higher = less stable) (Homo sapiens, pH 5, 25 °C, Urea, CD, sodium acetate 50 mM, structure 1TTG): 0.21 kcal/mol

Substance: Creatine kinase M-type wild type, P00563
- Tm (Oryctolagus cuniculus, pH 8, DSC, Hepes-NaOH 30 mM, NaCl 0.1 M, reversible: No): 53.7 °C and 53.8 °C

Substance: Titin L12736A, Q8WZ42
- ddG of mutation (higher = less stable) [3]: 5.27 kcal/mol

Substance: Tenascin, P24821 Y869A
- ddG of mutation (higher = less stable) (Homo sapiens, pH 5, 25 °C, Urea, Fluorescence, Sodium acetate 50 mM, reversible: yes, structure 1TEN): -1.88 kcal/mol

Substance: Endo-1,4-beta-xylanase wild type, Q59962
- unfolding enthalpy (calorimetric) (Streptomyces sp. S38, pH 7.5, DSC, MOPS 20 mM, NaCl 100 mM, reversible: No): 108 kcal/mol and 125 kcal/mol and 127 kcal/mol

Substance: Cytochrome c wild type, P62894
- unfolding free energy (Bos taurus, pH 6.5, 25 °C, GdnHCl, CD, HCl 0.1 M, reversible: yes): 15.4 kcal/mol

Substance: Peptidyl-prolyl cis-trans isomerase D K227A, P26882
- Tm [1]: 45.2 °C
- change of melting temperature, mutant - wild type (higher = more stable) [1]: 0.12 °C
- unfolding enthalpy (calorimetric) [1]: 159 kcal/mol

Substance: Spectrin alpha chain, erythrocytic 1, P02549 A2023V
- Tm [4]: 60.5 °C
- change of melting temperature, mutant - wild type (higher = more stable) [4]: -2 °C

Substance: Dystrophin, P11532 C10S C188S
- Tm (Homo sapiens, pH 7, CD, NaH2PO4, NaCl, reversible: no, structure 1DXX): 61 °C
- Tm (Homo sapiens, pH 7, Fluorescence, NaH2PO4, NaCl, reversible: no, structure 1DXX): 62.4 °C
- unfolding free energy (Homo sapiens, pH 7, Urea, CD, NaH2PO4, NaCl, reversible: yes, structure 1DXX): 9.81 kcal/mol
- unfolding free energy (Homo sapiens, pH 7, Urea, Fluorescence, NaH2PO4, NaCl, reversible: yes, structure 1DXX): 12.8 kcal/mol

Substance: Phospholipase A2, major isoenzyme N111D, P00592
- unfolding free energy (Sus scrofa, pH 7, 20 °C, GdnHCl, Absorbance, Tris 5 mM, reversible: yes, structure 1P2P): 0.19 kcal/mol

Substance: Fibronectin Y1605F, P02751
- ddG of mutation (higher = less stable) (Homo sapiens, pH 5, 25 °C, Urea, Fluorescence, Sodium acetate 50 mM, reversible: yes, structure 1TTG): -2.03 kcal/mol

Substance: Phospholipase A2, major isoenzyme wild type, P00592
- unfolding free energy (Sus scrofa, pH 7, 20 °C, GdnHCl, Absorbance, Tris 5 mM, reversible: yes): 0 kcal/mol

Substance: Tropomyosin alpha-1 chain G24A, Q91472
- Tm [5]: 36.9 °C
- change of melting temperature, mutant - wild type (higher = more stable) [5]: -0.1 °C

Substance: Phospholipase A2 H70Q, P00593
- ddG of mutation (higher = less stable) [6]: 0.6 kcal/mol
- denaturant m value [6]: 1.34 kcal/mol/M
- denaturant midpoint (higher = more stable) [6]: 6.6 M
- unfolding free energy [6]: 8.9 kcal/mol

Substance: Tropomyosin alpha-1 chain G27A, Q91472
- Tm [5]: 37.3 °C
- change of melting temperature, mutant - wild type (higher = more stable) [5]: 0.3 °C

Substance: Dystrophin, P11532 L172H
- Tm [7]: 42.1 °C
- change of melting temperature, mutant - wild type (higher = more stable) [7]: -1.28 °C

Substance: Carbonic anhydrase 2 wild type, P00921
- Tm [8]: 39 °C
- heat capacity change of unfolding [8]: 4 kcal/mol/K
- Tm [9]: 48 °C
- heat capacity change of unfolding [9]: 4 kcal/mol/K
- Tm [10]: 56 °C
- heat capacity change of unfolding [10]: 4 kcal/mol/K
- Tm [11]: 62.5 °C
- heat capacity change of unfolding [11]: 3.9 kcal/mol/K
- Tm [12]: 64 °C
- heat capacity change of unfolding [12]: 3.8 kcal/mol/K
- unfolding enthalpy (calorimetric) [12]: 190 kcal/mol

Substance: Twitchin, Q23551 Y4220F
- ddG of mutation (higher = less stable) (Caenorhabditis elegans, pH 7, 20 °C, Urea, Fluorescence, Sodium phosphate 50 mM, reversible: yes, structure 1WIT): -2.15 kcal/mol

Substance: Fibronectin D1544K, P02751
- Tm (Homo sapiens, pH 2.4, CD, glycine hydrochloride 20 mM, NaCl 0.1 M, reversible: yes, structure 1TTG): 69 °C
- Tm (Homo sapiens, pH 2.4, CD, glycine hydrochloride 20 mM, NaCl 1 M, reversible: yes, structure 1TTG): 77 °C
- Tm (Homo sapiens, pH 7, CD, sodium phosphate 20 mM, NaCl 0.1 M, reversible: yes, structure 1TTG): 70 °C
- Tm (Homo sapiens, pH 7, CD, sodium phosphate 20 mM, NaCl 1 M, reversible: yes, structure 1TTG): 78 °C
